# US20240150447A1 (CEPHALON, published 2024)
# Changes are numbered by the printed parent chain. Names and notes keep the numbering of the source.
# B1: hIgG1 M252Y/S254T/T256E/N434W, O4 VH with Ab6 light chain (antibody)
# heavy: QVQLRQSGPGLVQPSQSLSITCTVSGFSLTSYGVHWFRQSPGKGLEWLGVIWSGGSTDYNAAFISRLSISKDNSKSQVFFKMNSLQANDTAIYYCARNRGRYNYYAMDYWGQGTSVTVSSASTKGPSVFPLAPSSKSTSGGTAALGCLVKDYFPEPVTVSWNSGALTSGVHTFPAVLQSSGLYSLSSVVTVPSSSLGTQTYICNVNHKPSNTKVDKKVEPKSCDKTHTCPPCPAPELLGGPSVFLFPPKPKDTLYITREPEVTCVVVDVSHEDPEVKFNWYVDGVEVHNAKTKPREEQYNSTYRVVSVLTVLHQDWLNGKEYKCKVSNKALPAPIEKTISKAKGQPREPQVYTLPPSRDELTKNQVSLTCLVKGFYPSDIAVEWESNGQPENNYKTTPPVLDSDGSFFLYSKLTVDKSRWQQGNVFSCSVMHEALHWHYTQKSLSLSPG
# light: not shown
# notes: hIgG1
# B2: hIgG1 M252Y/T256A/V308P/N434W, O4 VH with Ab6 light chain (antibody)
# heavy: B1 heavy with T257S, E259A, V311P
# light: not shown
# notes: hIgG1
# B3: hIgG1 M252Y/T256D/V308P/N434W, O4 VH with Ab6 light chain (antibody)
# heavy: B1 heavy with T257S, E259D, V311P
# light: not shown
# notes: hIgG1
# B4: hIgG1 M252Y/T256E/V308P/N434W, O4 VH with Ab6 light chain (antibody)
# heavy: B1 heavy with T257S, V311P
# light: not shown
# notes: hIgG1
# B5: hIgG1 M252Y/T256H/V308P/N434W, O4 VH with Ab6 light chain (antibody)
# heavy: B1 heavy with T257S, E259H, V311P
# light: not shown
# notes: hIgG1
# B6: hIgG1 M252Y/T256L/V308P/N434W, O4 VH with Ab6 light chain (antibody)
# heavy: B1 heavy with T257S, E259L, V311P
# light: not shown
# notes: hIgG1
# B7: hIgG1 M252Y/T256M/V308P/N434W, O4 VH with Ab6 light chain (antibody)
# heavy: B1 heavy with T257S, E259M, V311P
# light: not shown
# notes: hIgG1
# B8: hIgG1 M252Y/T256P/V308P/N434W, O4 VH with Ab6 light chain (antibody)
# heavy: B1 heavy with T257S, E259P, V311P
# light: not shown
# notes: hIgG1
# B9: hIgG1 M252Y/T256R/V308P/N434W, O4 VH with Ab6 light chain (antibody)
# heavy: B1 heavy with T257S, E259R, V311P
# light: not shown
# notes: hIgG1
# B10: hIgG1 M252Y/T256S/V308P/N434W, O4 VH with Ab6 light chain (antibody)
# heavy: B1 heavy with T257S, E259S, V311P
# light: not shown
# notes: hIgG1
# B11: hIgG1 M252Y/T256V/V308P/N434F, O4 VH with Ab6 light chain (antibody)
# heavy: B1 heavy with T257S, E259V, V311P, W437F
# light: not shown
# notes: hIgG1
# B12: hIgG1 M252Y/T256V/V308P/N434W, O4 VH with Ab6 light chain (antibody)
# heavy: B1 heavy with T257S, E259V, V311P
# light: not shown
# notes: hIgG1
# B13: hIgG1 M252Y/T256Y/V308P/N434W, O4 VH with Ab6 light chain (antibody)
# heavy: B1 heavy with T257S, E259Y, V311P
# light: not shown
# notes: hIgG1
# B14: hIgG1 M252Y/V308P/N434W, O4 VH with Ab6 light chain (antibody)
# heavy: B1 heavy with T257S, E259T, V311P
# light: not shown
# notes: hIgG1
# B15: hIgG1 M252Y/V308P/N434Y, O4 VH with Ab6 light chain (antibody)
# heavy: B1 heavy with T257S, E259T, V311P, W437Y
# light: not shown
# notes: hIgG1
# B16: hIgG1 P257A/V308P/M428L/N434Y, O4 VH with Ab6 light chain (antibody)
# heavy: B1 heavy with Y255M, T257S, E259T, P260A, V311P, M431L, W437Y
# light: not shown
# notes: hIgG1
# What was measured:
# human FcRn protein [1] = molecular target: T1, human FcRn protein (human, UniProt P55899 24-297, limits assumed); test: SPR, Ab on Protein L chip, hFcRn in flow, pH 6.0
# T1 construct: source and construct not described; also called hFcRn; FCGRT
# Description: (§1) The interaction between human immunoglobulin proteins and FcRn is known to be affected by the pH of their environment solution. To test whether this pH-dependent interaction correlates with the quantity of antibody variants in the brain parenchyma after in vivo administration, the affinity of certain variants towards FcRn were screened at pH 6.0 and pH 7.4 on a Biacore T200 system (GE Healthcare). All experiments were conducted at 25′ C. Antibodies were expressed and purified using the Expi293 expression system as described in Example 1. Cells were transfected with a heavy chain comprising the variable region of the 04 antibody used in Example 2 [SEQ ID NO: 1] fused to a heavy chain region bearing the indicated substitution in Table 11 and a light chain from Ab6 [SEQ TD NO: 24]. Although the CH sequences listed in Table 11 include the terminal lysine (K447), this terminal lysine was truncated during the cloning process for each of these variants for the purposes of this experiment. Antibody proteins were captured at a flow rate of 10 μL/min on a Protein L chip to a surface density of approximately 100 RU. Experiments conducted at pH 7.4 were conducted in PBST (1.06 mMKH2PO4, 155.17 mM7NaCl, 2.97 mM 4Na2PO4-7H2O, and 0.005 Tween-20). […] The antibody-FcRn complex was allowed to dissociate for 20 s before the chip was regenerated with 10 mM glycine pH 1.7. On-rates (ka) and off-rates (kd) were estimated by the best fit to a one-to-one Langmuir binding model by simultaneous fitting of the association and dissociation sensograms. The dissociation constant (KD) for FcRn binding was then calculated as the ratio of the off rate to the on rate (kd/ka).
# human FcRn protein [2] = molecular target: T1, human FcRn protein; test: SPR, Ab on Protein L chip, hFcRn in flow, pH 7.4
# Description: as §1
# T1 sequence (P55899 24-297 limits assumed, chain 1 of 2): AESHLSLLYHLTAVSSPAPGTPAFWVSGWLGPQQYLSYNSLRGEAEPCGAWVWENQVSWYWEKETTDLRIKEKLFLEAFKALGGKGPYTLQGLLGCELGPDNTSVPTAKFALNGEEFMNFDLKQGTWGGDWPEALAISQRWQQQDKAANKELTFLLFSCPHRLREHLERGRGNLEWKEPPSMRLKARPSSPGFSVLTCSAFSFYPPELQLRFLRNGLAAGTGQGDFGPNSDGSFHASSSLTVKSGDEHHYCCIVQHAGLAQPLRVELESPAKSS
# T1 sequence (chain, as listed by the source limits assumed, chain 2 of 2): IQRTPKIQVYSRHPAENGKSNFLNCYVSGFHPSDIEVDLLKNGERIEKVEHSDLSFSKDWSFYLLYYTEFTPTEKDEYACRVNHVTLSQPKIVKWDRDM
Binder,Kd (human FcRn protein [1]) [nM],koff (human FcRn protein [1]) [s⁻¹],kon (human FcRn protein [1]) [M⁻¹ s⁻¹],Kd (human FcRn protein [2]) [nM],koff (human FcRn protein [2]) [s⁻¹],kon (human FcRn protein [2]) [M⁻¹ s⁻¹]
B1,4.38,0.00655,1.49e+06,,,
B2,0.426,0.000815,1.91e+06,90.1,0.08,893000
B3,1.19,0.00211,1.77e+06,52.1,0.0338,650000
B4,0.744,0.00128,1.71e+06,70.2,0.0341,486000
B5,2.2,0.00228,1.04e+06,103,0.19,1.82e+06
B6,2.85,0.00351,1.23e+06,137,0.0868,634000
B7,0.828,0.00125,1.51e+06,37.2,0.28,7.62e+06
B8,0.0414,3.83e-05,927000,49.8,0.02,442000
B9,0.433,0.001,2.31e+06,,,
B10,1.23,0.00186,1.52e+06,84.5,0.0564,668000
B11,1.25,0.00139,1.11e+06,202,0.2,977000
B12,1.87,0.0024,1.29e+06,68.7,0.0327,476000
B13,0.754,0.00112,1.49e+06,202,0.08,395000
B14,0.767,0.00124,1.62e+06,730000,3.11,4260
B15,1.51,0.00242,1.61e+06,10300,0.748,72600
B16,4.26,0.00706,1.66e+06,239,0.0545,228000
